Data from doi:10.1101/2022.02.02.478874 (bioRxiv, 2022).

T1: ^mChSpindly^ΔRV (human, UniProt Q96EA4 1-605, ΔRV (residues R154-V155))
T1 sequence: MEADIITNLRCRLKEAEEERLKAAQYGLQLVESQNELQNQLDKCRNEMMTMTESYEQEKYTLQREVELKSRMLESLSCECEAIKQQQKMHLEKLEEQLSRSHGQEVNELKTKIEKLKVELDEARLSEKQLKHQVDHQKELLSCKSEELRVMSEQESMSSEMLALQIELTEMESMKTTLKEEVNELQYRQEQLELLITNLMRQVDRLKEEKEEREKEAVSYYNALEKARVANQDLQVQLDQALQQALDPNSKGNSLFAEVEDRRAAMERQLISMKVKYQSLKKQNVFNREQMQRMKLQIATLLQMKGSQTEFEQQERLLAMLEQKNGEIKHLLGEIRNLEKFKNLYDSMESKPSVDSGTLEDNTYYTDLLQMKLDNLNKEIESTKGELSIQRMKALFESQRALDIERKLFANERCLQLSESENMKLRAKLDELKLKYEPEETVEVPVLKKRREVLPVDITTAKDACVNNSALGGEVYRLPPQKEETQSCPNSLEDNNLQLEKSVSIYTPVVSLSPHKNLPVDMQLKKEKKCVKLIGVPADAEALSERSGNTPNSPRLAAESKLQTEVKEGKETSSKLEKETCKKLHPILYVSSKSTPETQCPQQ

B1: ^mChSpindly^CC2* (R295E-K297E) (natural protein)
chain: MEADIITNLRCRLKEAEEERLKAAQYGLQLVESQNELQNQLDKCRNEMMTMTESYEQEKYTLQREVELKSRMLESLSCECEAIKQQQKMHLEKLEEQLSRSHGQEVNELKTKIEKLKVELDEARLSEKQLKHQVDHQKELLSCKSEELRVMSERVQESMSSEMLALQIELTEMESMKTTLKEEVNELQYRQEQLELLITNLMRQVDRLKEEKEEREKEAVSYYNALEKARVANQDLQVQLDQALQQALDPNSKGNSLFAEVEDRRAAMERQLISMKVKYQSLKKQNVFNREQMQEMELQIATLLQMKGSQTEFEQQERLLAMLEQKNGEIKHLLGEIRNLEKFKNLYDSMESKPSVDSGTLEDNTYYTDLLQMKLDNLNKEIESTKGELSIQRMKALFESQRALDIERKLFANERCLQLSESENMKLRAKLDELKLKYEPEETVEVPVLKKRREVLPVDITTAKDACVNNSALGGEVYRLPPQKEETQSCPNSLEDNNLQLEKSVSIYTPVVSLSPHKNLPVDMQLKKEKKCVKLIGVPADAEALSERSGNTPNSPRLAAESKLQTEVKEGKETSSKLEKETCKKLHPILYVSSKSTPETQCPQQ
B2: GST-tagged LIC2 (Dynein light intermediate chain 2) (natural protein)
chain: MAPVGVEKKLLLGPNGPAVAAAGDLTSEEEEGQSLWSSILSEVSTRARSKLPSGKNILVFGEDGSGKTTLMTKLQGAEHGKKGRGLEYLYLSVHDEDRDDHTRCNVWILDGDLYHKGLLKFAVSAESLPETLVIFVADMSRPWTVMESLQKWASVLREHIDKMKIPPEKMRELERKFVKDFQDYMEPEEGCQGSPQRRGPLTSGSDEENVALPLGDNVLTHNLGIPVLVVCTKCDAVSVLEKEHDYRDEHLDFIQSHLRRFCLQYGAALIYTSVKEEKNLDLLYKYIVHKTYGFHFTTPALVVEKDAVFIPAGWDNEKKIAILHENFTTVKPEDAYEDFIVKPPVRKLVHDKELAAEDEQVFLMKQQSLLAKQPATPTRASESPARGPSGSPRTQGRGGPASVPSSSPGTSVKKPDPNIKNNAASEGVLASFFNSLLSKKTGSPGSPGAGGVQSTAKKSGQKTVLSNVQEELDRMTRKPDSMVTNSSTENEA

Legend:
[1] = molecular target: ROD-Zwilch-ZW10 (RZZ) complex with mCherry on ROD (UniProt P50748;Q9H900;O43264); test: SEC
Chain of ROD-Zwilch-ZW10 (RZZ) complex with mCherry on ROD (P50748 whole entry, chain 1 of 3): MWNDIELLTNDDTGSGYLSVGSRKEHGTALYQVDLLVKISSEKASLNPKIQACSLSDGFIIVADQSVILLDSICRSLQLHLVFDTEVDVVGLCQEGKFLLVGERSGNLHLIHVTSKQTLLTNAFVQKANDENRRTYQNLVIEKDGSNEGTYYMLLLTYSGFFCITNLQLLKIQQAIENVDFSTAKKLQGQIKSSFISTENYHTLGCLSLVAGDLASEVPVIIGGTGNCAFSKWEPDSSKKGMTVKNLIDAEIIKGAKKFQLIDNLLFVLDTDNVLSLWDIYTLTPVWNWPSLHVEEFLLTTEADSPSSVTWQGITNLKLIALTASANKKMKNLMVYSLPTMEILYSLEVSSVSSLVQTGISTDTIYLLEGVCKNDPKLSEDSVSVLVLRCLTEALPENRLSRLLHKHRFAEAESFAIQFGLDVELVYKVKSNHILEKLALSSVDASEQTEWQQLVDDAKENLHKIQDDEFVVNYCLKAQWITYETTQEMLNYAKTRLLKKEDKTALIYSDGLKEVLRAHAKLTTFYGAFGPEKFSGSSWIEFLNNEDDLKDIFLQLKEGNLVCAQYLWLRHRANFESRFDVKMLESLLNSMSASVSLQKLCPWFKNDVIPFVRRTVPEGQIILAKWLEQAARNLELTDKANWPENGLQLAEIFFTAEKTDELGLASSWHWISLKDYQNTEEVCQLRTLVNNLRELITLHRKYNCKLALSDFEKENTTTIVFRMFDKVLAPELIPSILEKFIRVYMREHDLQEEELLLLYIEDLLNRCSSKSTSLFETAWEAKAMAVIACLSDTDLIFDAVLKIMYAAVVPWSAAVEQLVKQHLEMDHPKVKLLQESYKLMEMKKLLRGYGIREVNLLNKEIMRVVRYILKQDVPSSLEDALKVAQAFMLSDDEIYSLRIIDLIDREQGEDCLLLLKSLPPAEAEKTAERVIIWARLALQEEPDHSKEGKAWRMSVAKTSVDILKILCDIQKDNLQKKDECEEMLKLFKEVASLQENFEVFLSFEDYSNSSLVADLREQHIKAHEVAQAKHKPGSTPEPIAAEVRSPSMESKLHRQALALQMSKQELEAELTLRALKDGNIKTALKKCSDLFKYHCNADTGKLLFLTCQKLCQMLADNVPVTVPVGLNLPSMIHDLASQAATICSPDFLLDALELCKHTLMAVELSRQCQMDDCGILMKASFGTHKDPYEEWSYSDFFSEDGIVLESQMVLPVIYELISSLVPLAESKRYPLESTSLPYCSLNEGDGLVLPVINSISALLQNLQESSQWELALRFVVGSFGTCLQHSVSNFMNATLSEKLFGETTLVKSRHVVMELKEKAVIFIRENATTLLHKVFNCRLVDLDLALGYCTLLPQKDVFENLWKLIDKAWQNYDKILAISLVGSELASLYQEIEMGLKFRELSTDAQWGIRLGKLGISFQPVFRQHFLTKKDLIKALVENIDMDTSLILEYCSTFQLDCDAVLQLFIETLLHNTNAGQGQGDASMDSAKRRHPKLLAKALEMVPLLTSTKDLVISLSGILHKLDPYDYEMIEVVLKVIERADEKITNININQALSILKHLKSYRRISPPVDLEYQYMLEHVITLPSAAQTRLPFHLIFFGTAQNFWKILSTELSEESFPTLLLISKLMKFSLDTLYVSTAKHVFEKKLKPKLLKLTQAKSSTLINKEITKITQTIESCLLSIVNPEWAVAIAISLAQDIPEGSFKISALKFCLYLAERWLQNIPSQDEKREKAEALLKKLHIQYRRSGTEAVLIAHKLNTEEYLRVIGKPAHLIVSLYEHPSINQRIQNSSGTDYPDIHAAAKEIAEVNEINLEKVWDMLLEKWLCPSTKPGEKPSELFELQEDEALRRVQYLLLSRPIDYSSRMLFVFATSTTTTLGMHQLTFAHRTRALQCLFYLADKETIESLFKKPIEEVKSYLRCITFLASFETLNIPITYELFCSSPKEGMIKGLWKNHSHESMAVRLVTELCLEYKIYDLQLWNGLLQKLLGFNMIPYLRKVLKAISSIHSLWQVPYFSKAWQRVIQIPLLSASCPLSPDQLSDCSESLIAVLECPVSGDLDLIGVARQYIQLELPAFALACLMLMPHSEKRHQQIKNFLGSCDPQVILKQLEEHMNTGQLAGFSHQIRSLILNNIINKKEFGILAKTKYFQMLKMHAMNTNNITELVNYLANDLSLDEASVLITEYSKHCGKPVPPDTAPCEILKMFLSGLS
Chain of ROD-Zwilch-ZW10 (RZZ) complex with mCherry on ROD (Q9H900 whole entry, chain 2 of 3): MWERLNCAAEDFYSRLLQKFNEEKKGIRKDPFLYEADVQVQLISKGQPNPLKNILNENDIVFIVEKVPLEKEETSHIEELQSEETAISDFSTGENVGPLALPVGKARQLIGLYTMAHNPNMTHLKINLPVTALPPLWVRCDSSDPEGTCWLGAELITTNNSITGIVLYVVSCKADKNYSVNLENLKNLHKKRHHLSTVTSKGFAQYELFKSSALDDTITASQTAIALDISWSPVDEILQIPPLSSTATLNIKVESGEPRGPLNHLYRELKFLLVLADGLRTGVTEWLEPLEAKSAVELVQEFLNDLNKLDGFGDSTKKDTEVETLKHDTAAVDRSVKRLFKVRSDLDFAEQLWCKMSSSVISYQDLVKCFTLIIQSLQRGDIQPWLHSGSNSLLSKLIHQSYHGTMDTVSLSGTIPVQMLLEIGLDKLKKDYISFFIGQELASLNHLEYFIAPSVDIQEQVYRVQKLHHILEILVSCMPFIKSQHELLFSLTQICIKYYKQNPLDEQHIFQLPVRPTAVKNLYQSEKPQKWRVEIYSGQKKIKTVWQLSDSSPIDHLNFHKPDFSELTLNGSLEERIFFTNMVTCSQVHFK
Chain of ROD-Zwilch-ZW10 (RZZ) complex with mCherry on ROD (O43264 whole entry, chain 3 of 3): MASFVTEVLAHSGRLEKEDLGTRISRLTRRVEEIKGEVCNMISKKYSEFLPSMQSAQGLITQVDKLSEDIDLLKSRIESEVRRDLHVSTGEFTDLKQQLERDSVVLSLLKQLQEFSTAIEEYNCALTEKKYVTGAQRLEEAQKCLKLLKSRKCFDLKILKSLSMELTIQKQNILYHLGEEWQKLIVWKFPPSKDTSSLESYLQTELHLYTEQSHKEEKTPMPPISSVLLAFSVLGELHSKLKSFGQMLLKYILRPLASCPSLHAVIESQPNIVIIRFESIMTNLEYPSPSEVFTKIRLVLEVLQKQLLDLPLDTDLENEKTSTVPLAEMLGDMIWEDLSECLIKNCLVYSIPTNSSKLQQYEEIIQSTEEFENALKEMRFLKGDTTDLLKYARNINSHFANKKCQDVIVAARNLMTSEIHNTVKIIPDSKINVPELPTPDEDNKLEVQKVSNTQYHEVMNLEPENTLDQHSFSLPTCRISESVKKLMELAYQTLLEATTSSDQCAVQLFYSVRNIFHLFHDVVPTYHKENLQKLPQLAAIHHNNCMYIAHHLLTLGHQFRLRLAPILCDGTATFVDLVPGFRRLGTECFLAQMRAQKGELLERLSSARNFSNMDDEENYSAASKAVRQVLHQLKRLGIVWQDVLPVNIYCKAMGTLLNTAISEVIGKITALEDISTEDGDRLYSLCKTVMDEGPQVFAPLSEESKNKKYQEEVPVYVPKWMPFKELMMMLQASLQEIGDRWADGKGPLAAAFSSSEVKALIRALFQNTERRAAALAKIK

[2] = molecular target: the molecule itself; test: mass photometry
[3] = molecular target: B1; test: pull-down
[4] = molecular target: T1, ^mChSpindly^ΔRV; test: pull-down

Binder | binding result [1] | stoichiometry N [2] | binding result [3] | binding result [4]
B1 | binds | 2 |  | 
B2 |  |  | binds | binds
